# In patent US20240117018A1:
# Assays:
# Assay in all cases: cell-based or functional assay
# [1] = biological target: HIV-1 Env of pseudovirus CAP45.2.00.G3 (HIV-1)
# [2] = biological target: HIV-1 Env of pseudovirus 6244_13_B5_4576 (HIV-1)
# [3] = biological target: HIV-1 Env of pseudovirus CNE21 (HIV-1)
# [4] = biological target: HIV-1 Env of pseudovirus SC05_8C11_2344 (HIV-1)
# [5] = biological target: HIV-1 Env of pseudovirus MS208.A1 (HIV-1)
# [6] = biological target: HIV-1 Env of pseudovirus Q842.d12 (HIV-1)
# [7] = biological target: HIV-1 Env of pseudovirus PVO.4 (HIV-1)
# [8] = biological target: HIV-1 Env of pseudovirus 1054_07_TC4_1499 (HIV-1)
# [9] = biological target: HIV-1 Env of pseudovirus Du422.1 (HIV-1)
# [10] = biological target: HIV-1 Env of pseudovirus ZM197M.PB7 (HIV-1)
# [11] = biological target: HIV-1 Env of pseudovirus BF1266.431a (HIV-1)
# [12] = biological target: HIV-1 Env of pseudovirus 3365.v2.c2 (HIV-1)
# [13] = biological target: HIV-1 Env of pseudovirus Ce703010054_2A2 (HIV-1)
# [14] = biological target: HIV-1 Env of pseudovirus ZM109F.PB4 (HIV-1)
# [15] = biological target: HIV-1 Env of pseudovirus 246F C1G (HIV-1)
# [16] = biological target: HIV-1 Env of pseudovirus Ce1086_B2 (HIV-1)
# [17] = biological target: HIV-1 Env of pseudovirus Ce0393_C3 (HIV-1)
# [18] = biological target: HIV-1 Env of pseudovirus 263-8 (HIV-1)
# [19] = biological target: HIV-1 Env of pseudovirus QH0692.42 (HIV-1)
# [20] = biological target: HIV-1 Env of pseudovirus Ce1172_H1 (HIV-1)
# [21] = biological target: HIV-1 Env of pseudovirus CAP210.2.00.E8 (HIV-1)
# [22] = biological target: HIV-1 Env of pseudovirus THRO4156.18 (HIV-1)
# [23] = biological target: HIV-1 Env of pseudovirus Ce704809221_1B3 (HIV-1)
# [24] = biological target: HIV-1 Env of pseudovirus CNE19 (HIV-1)
# [25] = biological target: HIV-1 Env of pseudovirus CNE58 (HIV-1)
# [26] = biological target: HIV-1 Env of pseudovirus Ce1176_A3 (HIV-1)
# [27] = biological target: HIV-1 Env of pseudovirus CNE52 (HIV-1)
# [28] = biological target: HIV-1 Env of pseudovirus CAAN5342.A2 (HIV-1)
substance,measurement,setting,value
3BNC117 (antibody),IC50,[1],3.88 µg/mL
same,IC80,[1],> 50 µg/mL
same,IC50,[2],0.04 µg/mL
same,IC80,[2],0.15 µg/mL
same,IC50,[3],45.4 µg/mL
same,IC80,[3],> 50 µg/mL
same,IC50,[4],0.15 µg/mL
same,IC80,[4],0.51 µg/mL
same,IC50,[5],0.01 µg/mL
same,IC80,[5],0.09 µg/mL
same,IC50,[6],< 0.01 µg/mL
same,IC80,[6],0.01 µg/mL
same,IC50,[7],< 0.09 µg/mL
same,IC80,[7],0.19 µg/mL
same,IC50,[8],0.07 µg/mL
same,IC80,[8],0.49 µg/mL
same,IC50,[9],> 50 µg/mL
same,IC80,[9],> 50 µg/mL
same,IC50,[10],0.22 µg/mL
same,IC80,[10],1.03 µg/mL
same,IC50,[11],0.03 µg/mL
same,IC80,[11],0.09 µg/mL
same,IC50,[12],0.03 µg/mL
same,IC80,[12],0.1 µg/mL
same,IC50,[13],0.37 µg/mL
same,IC80,[13],1.67 µg/mL
same,IC50,[14],0.14 µg/mL
same,IC80,[14],0.88 µg/mL
same,IC50,[15],19.3 µg/mL
same,IC80,[15],> 50 µg/mL
same,IC50,[16],0.09 µg/mL
same,IC80,[16],0.31 µg/mL
same,IC50,[17],0.2 µg/mL
same,IC80,[17],0.67 µg/mL
same,IC50,[18],5 ng/mL
same,IC80,[18],0.04 µg/mL
same,IC50,[19],0.13 µg/mL
same,IC80,[19],0.49 µg/mL
same,IC50,[20],> 50 µg/mL
same,IC80,[20],> 50 µg/mL
same,IC50,[21],17.2 µg/mL
same,IC80,[21],> 50 µg/mL
same,IC50,[22],1.76 µg/mL
same,IC80,[22],10.1 µg/mL
same,IC50,[23],0.08 µg/mL
same,IC80,[23],0.31 µg/mL
same,IC50,[24],0.02 µg/mL
same,IC80,[24],0.08 µg/mL
same,IC50,[25],0.25 µg/mL
same,IC80,[25],2.03 µg/mL
same,IC50,[26],0.22 µg/mL
same,IC80,[26],0.75 µg/mL
same,IC50,[27],0.02 µg/mL
same,IC80,[27],0.06 µg/mL
same,IC50,[28],0.42 µg/mL
same,IC80,[28],1.51 µg/mL
8ANC195 (antibody),IC50,[1],28.3 µg/mL
same,IC80,[1],> 50 µg/mL
same,IC50,[2],> 50 µg/mL
same,IC80,[2],> 50 µg/mL
same,IC50,[3],0.27 µg/mL
same,IC80,[3],1.52 µg/mL
same,IC50,[4],0.47 µg/mL
same,IC80,[4],3.06 µg/mL
same,IC50,[5],> 50 µg/mL
same,IC80,[5],> 50 µg/mL
same,IC50,[6],> 30 µg/mL
same,IC80,[6],> 30 µg/mL
same,IC50,[7],0.52 µg/mL
same,IC80,[7],1.87 µg/mL
same,IC50,[8],1.02 µg/mL
same,IC80,[8],6.75 µg/mL
same,IC50,[9],> 50 µg/mL
same,IC80,[9],> 50 µg/mL
same,IC50,[10],23.4 µg/mL
same,IC80,[10],> 50 µg/mL
same,IC50,[11],> 50 µg/mL
same,IC80,[11],> 50 µg/mL
same,IC50,[12],> 30 µg/mL
same,IC80,[12],> 30 µg/mL
same,IC50,[13],13.6 µg/mL
same,IC80,[13],> 50 µg/mL
same,IC50,[14],> 30 µg/mL
same,IC80,[14],> 30 µg/mL
same,IC50,[15],12.8 µg/mL
same,IC80,[15],> 50 µg/mL
same,IC50,[16],4.42 µg/mL
same,IC80,[16],19.1 µg/mL
same,IC50,[17],6.77 µg/mL
same,IC80,[17],> 50 µg/mL
same,IC50,[18],> 50000 ng/mL
same,IC80,[18],> 50 µg/mL
same,IC50,[19],2.71 µg/mL
same,IC80,[19],17.1 µg/mL
same,IC50,[20],42.3 µg/mL
same,IC80,[20],> 50 µg/mL
same,IC50,[21],> 50 µg/mL
same,IC80,[21],> 50 µg/mL
same,IC50,[22],> 50 µg/mL
same,IC80,[22],> 50 µg/mL
same,IC50,[23],0.48 µg/mL
same,IC80,[23],3.52 µg/mL
same,IC50,[24],0.29 µg/mL
same,IC80,[24],1.73 µg/mL
same,IC50,[25],> 50 µg/mL
same,IC80,[25],> 50 µg/mL
same,IC50,[26],4.45 µg/mL
same,IC80,[26],35.2 µg/mL
same,IC50,[27],5.59 µg/mL
same,IC80,[27],43.1 µg/mL
same,IC50,[28],> 50 µg/mL
same,IC80,[28],> 50 µg/mL
